Measured values: article PMC11098746 (2024)

How the values were obtained:
Experiment in all cases: AVEXIS screen signal:noise (double-corrected)
ADP363 = molecular target: ADP363
ADP276 = molecular target: T1, ADP276
T1 chain: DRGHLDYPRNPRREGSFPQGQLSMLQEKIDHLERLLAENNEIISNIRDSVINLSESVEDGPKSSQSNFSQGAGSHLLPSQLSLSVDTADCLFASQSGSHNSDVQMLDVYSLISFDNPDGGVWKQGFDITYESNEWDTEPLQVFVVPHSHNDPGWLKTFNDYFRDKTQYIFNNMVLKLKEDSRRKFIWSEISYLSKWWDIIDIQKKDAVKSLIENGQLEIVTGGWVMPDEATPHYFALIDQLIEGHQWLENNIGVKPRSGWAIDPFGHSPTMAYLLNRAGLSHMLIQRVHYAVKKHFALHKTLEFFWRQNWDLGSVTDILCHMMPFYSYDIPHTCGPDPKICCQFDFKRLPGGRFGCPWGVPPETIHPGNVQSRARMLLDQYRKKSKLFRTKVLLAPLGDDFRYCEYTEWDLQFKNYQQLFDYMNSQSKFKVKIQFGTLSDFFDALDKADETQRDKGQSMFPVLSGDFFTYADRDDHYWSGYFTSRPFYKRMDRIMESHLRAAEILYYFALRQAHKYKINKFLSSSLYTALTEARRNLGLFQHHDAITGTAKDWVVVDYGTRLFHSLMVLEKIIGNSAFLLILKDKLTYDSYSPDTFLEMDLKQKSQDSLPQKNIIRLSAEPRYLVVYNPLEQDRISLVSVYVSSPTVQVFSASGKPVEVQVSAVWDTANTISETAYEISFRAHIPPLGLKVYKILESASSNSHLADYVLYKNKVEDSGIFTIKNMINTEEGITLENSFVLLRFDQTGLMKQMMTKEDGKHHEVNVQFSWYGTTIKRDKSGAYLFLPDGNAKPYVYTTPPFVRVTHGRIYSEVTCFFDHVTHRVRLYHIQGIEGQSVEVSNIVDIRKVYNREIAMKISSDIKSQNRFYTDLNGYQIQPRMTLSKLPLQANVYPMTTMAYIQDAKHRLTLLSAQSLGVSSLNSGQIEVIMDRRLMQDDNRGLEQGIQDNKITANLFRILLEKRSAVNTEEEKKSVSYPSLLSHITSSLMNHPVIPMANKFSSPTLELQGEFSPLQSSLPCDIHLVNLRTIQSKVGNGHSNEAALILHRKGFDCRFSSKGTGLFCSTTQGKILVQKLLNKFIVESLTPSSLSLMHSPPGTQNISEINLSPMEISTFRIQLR

ADP317 = molecular target: T2, ADP317
T2 chain: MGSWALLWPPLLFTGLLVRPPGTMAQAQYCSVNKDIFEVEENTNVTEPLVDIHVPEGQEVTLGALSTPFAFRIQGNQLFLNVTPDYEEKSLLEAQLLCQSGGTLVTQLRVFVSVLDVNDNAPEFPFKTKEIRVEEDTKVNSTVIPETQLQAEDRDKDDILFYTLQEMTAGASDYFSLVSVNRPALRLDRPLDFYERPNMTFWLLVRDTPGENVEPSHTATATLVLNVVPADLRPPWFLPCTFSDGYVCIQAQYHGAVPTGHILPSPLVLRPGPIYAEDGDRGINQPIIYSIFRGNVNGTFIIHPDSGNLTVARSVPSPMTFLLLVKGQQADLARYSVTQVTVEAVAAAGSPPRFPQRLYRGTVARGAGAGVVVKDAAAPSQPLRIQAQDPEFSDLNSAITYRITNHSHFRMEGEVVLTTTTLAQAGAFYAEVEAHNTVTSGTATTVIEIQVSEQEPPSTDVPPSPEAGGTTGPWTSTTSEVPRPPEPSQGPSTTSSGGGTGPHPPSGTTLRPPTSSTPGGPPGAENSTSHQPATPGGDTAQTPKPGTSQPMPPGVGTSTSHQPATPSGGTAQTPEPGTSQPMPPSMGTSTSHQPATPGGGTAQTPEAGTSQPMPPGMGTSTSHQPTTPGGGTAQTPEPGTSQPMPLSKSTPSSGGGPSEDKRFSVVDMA

ADP141 = molecular target: T3, ADP141
T3 chain: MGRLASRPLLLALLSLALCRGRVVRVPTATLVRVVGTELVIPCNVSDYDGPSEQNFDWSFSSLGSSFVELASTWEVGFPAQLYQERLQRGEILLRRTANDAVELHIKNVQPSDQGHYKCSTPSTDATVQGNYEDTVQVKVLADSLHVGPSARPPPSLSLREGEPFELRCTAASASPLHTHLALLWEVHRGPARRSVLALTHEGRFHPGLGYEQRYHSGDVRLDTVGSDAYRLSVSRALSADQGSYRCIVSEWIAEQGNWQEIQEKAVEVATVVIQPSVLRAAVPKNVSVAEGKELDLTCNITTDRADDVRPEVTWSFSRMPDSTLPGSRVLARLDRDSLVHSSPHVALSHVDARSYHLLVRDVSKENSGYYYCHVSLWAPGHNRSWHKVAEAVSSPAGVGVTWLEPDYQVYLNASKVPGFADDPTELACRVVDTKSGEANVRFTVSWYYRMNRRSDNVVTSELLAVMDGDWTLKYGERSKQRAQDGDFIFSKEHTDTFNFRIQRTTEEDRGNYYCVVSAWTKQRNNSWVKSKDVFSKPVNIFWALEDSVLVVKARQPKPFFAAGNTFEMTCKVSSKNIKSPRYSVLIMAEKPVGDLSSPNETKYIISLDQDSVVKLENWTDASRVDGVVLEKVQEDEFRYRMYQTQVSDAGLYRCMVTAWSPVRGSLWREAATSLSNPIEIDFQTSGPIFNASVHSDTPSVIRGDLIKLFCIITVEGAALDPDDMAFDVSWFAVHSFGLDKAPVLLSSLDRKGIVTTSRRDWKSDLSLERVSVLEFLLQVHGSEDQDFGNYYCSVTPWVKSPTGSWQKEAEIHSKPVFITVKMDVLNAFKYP

ADP104 = molecular target: T4, ADP104
T4 chain: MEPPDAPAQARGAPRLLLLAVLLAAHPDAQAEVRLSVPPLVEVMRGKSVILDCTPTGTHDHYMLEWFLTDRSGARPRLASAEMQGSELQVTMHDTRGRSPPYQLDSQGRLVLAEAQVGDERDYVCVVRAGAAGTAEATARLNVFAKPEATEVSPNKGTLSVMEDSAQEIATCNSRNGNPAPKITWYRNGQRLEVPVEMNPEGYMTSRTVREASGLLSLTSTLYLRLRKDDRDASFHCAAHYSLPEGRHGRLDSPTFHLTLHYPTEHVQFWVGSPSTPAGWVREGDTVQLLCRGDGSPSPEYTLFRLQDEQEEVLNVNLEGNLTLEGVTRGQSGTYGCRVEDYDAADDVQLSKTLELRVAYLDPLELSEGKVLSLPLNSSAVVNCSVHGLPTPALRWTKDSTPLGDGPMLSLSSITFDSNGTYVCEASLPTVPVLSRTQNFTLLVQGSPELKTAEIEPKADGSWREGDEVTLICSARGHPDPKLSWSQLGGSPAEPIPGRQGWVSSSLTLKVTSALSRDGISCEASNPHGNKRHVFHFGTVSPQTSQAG

ADP296 = molecular target: T5, ADP296
T5 chain: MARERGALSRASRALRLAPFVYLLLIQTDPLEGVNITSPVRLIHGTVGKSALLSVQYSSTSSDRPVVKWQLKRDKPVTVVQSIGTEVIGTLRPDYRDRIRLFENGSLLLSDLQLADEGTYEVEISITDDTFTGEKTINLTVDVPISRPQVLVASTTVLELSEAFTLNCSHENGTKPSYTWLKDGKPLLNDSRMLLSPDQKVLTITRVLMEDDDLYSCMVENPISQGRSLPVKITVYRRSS

ADP132 = molecular target: ADP132
ADP110 = molecular target: ADP110

B1: ADP168 (protein)
chain: NNIKLNDKENINFESYFNKRTNEENVLNKNVAKEMGDTFVAHKAIELNINHHHVNNDKEFNNNNNNKHQPYYHNEHDKKFSESLKAHMDHLKILNNDLKQHIDKKERNEIYENNDLKKYIIKEIQNNKYLNKEKKSSEDIQILEEHSKKLQKEIHEWLESVNNIEEKSNILKNIKSQLLNNIASLNHALSEEIKNINDIKELQKQQNDLFSENWLYFLPSSSDYLLNEKKKNLYDNQDNSMKDDINNNDKYNIFNYLQNVQDKDNQYEVMKQDNNNIHSGSS
modifications: bait human Fc-tagged dimer; N-glycosylation sequons mutated in Plasmodium baits
binding score (ADP363): 198
binding score (ADP276): 5.43

B2: ADP227 (protein)
chain: LKVPIENAPFVFNKKENDIKYFLDKETPDDFLSNNAYSLDITLENFPNPFFHPSLCNRYGFKFSYICDPNKILSRNIADQIEEILNYQRRNSKHFCVDKEVPYVLGVALINKLPYGISADTFASQIFEYWKLSNKDCNDGVLLFFVKEDTHFILKWKKGAQSIINFRTATSMNKAFNQYLRKYSLEYSILSAVKLTSQYLTEEIIPPTQTAQK
modifications: bait human Fc-tagged dimer; N-glycosylation sequons mutated in Plasmodium baits
binding score (ADP317): 5.21
binding score (ADP141): 6.72

B3: ADP233 (protein)
chain: SPGNDNNNVNNDGVVHVLSKNIDVKNLQGTFYEIATNAADKIFPGLACRCTKYEFSGLKRDGNLGYVLINFACARNFIFGEKKSEMTFKLILNKPLDENTATVEEFNAAIYLVQGNQQILLNGNINIIYAELNEQNEFEHLILGGQKSIEPMIIMSKYRTVLLDTYNKLINSLYLAGYEPSLLTWPFIIQTDQTFCD
modifications: bait human Fc-tagged dimer; N-glycosylation sequons mutated in Plasmodium baits
binding score (ADP104): 7.73
binding score (ADP141): 5.97
binding score (ADP296): 6.11

B4: ADP190 (protein)
chain: IQLHSVNYAPLNYIEIGDTLSNKVGELWHSHLNSFIDIVSTKVVNKLEDDLSNGNNLEKFMILLEDDADIFDASAYEGKNLALIQTEFIRKLKDKFKNSKFGQKLKKLGSKAKEKLLSLYQKHKGKLRHFFSILLKSLVIPIAVQFIRKNLNKWKQRTLEATQKLDEQSKNIAQPIINRLYNSFEDKIEEYSQENKINVEDELNALGQLDKDKQDIQKLEEQEKALLQ
modifications: bait human Fc-tagged dimer; N-glycosylation sequons mutated in Plasmodium baits
binding score (ADP132): 11.3
binding score (ADP110): 11.4
